± gives the standard deviation of the averaged measurements.

This series deals with ATP. Briefly: switch fluorescence ratio, 500 uM ATP over buffer (Cy3 cluster intensity, sum of 5 cycles each) (fold (ratio)); higher = stronger signal-on switching upon ATP binding; sequences stand for … in TCGTCGGCAGCGTCAGATGTGTATAAGAGACAGTTTTTTTTTTTTTTTTTTTTTTTTT…TC. The following applies: aptamer strand: ATP DNA aptamer (quencher-CACCTGGGGGAGTATTGCGGAGGAAGG + anchor), 100 nM annealed; ATP concentration: 500 uM. In a few lines:
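Clusters carrying Cy3-labelled switching strands on a modified Illumina MiSeq flow-cell were annealed to 100 nM quencher-labelled ATP aptamer and imaged in selection buffer. They were imaged again after 15 min with 500 uM ATP at 22 °C, over five buffer/ATP cycles with NaOH stripping and re-annealing in between. For each cluster, the fluorescence ratio is the summed Cy3 intensity of the target cycles divided by that of the buffer cycles, averaged per switch-domain sequence. Clusters outside 100-1000 RFU were left out.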
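Note: ATP exposure 15 min at 22 °C before imaging.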

Consider AAGTTGTCCG, for which the switch fluorescence ratio is 0.964 ± 0.0091. Turning to AAGTTGTCTT, the switch fluorescence ratio worked out at 0.999 ± 0.027. To AAGTTGTGAA belongs 1.01 ± 0.017. As for AAGTTGTGTA, the switch fluorescence ratio was 0.993 ± 0.031. To AAGTTTAATA belongs 0.943 ± 0.034. The same measure for AAGTTTACAT: 1.01 ± 0.026.

In the case of AAGTTTATGG, the switch fluorescence ratio was determined as 0.9798 ± 0.0057. In the case of AAGTTTCGCG, the switch fluorescence ratio turned out to be 0.976 ± 0.027. The same measure for AAGTTTGACC: 0.978 ± 0.032; for AAGTTTGTCA: 0.955 ± 0.017; for AAGTTTGTGG: 0.973 ± 0.047. The same measure for AAGTTTTCCG: 0.964 ± 0.062. The same measure for AAGTTTTGGC: 1 ± 0.035. With AAGTTTTGGG, the switch fluorescence ratio was 0.974 ± 0.02.

As to AAGTTTTTGG, the switch fluorescence ratio worked out at 1.01 ± 0.03.

Turning to AATAAAATTT, the switch fluorescence ratio came to 1.04 ± 0.022. To AATAAACAAA belongs 0.978 ± 0.013.

AATAAAGGGT: the switch fluorescence ratio was 1.02 ± 0.027.

In the case of AATAAGATGT, the switch fluorescence ratio was found to be 0.999 ± 0.066. To AATAAGCTGG belongs 0.984 ± 0.033; to AATAAGGT, 1.003 ± 0.0056; to AATAATAAAC, 1.006 ± 0.0047. To AATAATCTTT belongs 1.02 ± 0.013.

Take AATAATGGAA: the switch fluorescence ratio turned out to be 0.987 ± 0.015. The same measure for AATAATGGTT: 1.01 ± 0.013; for AATAATGTTC: 0.9805 ± 0.0071; for AATAATTAAA: 0.9861 ± 0.0097. For the sequence AATACCCGGG, the switch fluorescence ratio was determined as 1.021 ± 0.0045. As to AATACGGTCT, the switch fluorescence ratio worked out at 1 ± 0.06. The same measure for AATACTACAG: 1.08 ± 0.024; for AATACTCACG: 1.5 ± 0.058; for AATACTGTGC: 0.947 ± 0.064. The same measure for AATAGAATAC: 1.163 ± 0.0021. To AATAGAGGAG belongs 1.012 ± 0.007.

Consider AATAGATAGT, for which the switch fluorescence ratio is 0.9929 ± 0.0055.

Turning to AATAGATTGC, the switch fluorescence ratio was determined as 1.003 ± 0.0092.

Turning to AATAGGGGAA, the switch fluorescence ratio was determined as 1.01 ± 0.042. The same measure for AATAGGGGAC: 1.01 ± 0.016; for AATAGGGGTT: 0.984 ± 0.03. Take AATAGTAAAT: the switch fluorescence ratio amounted to 0.999 ± 0.012.

As for AATAGTAGCG, the switch fluorescence ratio amounted to 1.01 ± 0.054. To AATAGTATCT belongs 1.01 ± 0.029. The same measure for AATAGTGACG: 1.14 ± 0.28; for AATAGTTTG: 1.01 ± 0.017; for AATAGTTTTT: 0.986 ± 0.055. The same measure for AATATAAATA: 1.019 ± 0.0072; for AATATAGGGG: 0.996 ± 0.017. For the sequence AATATATGGA, the switch fluorescence ratio stood at 1 ± 0.023.

For the sequence AATATATGGG, the switch fluorescence ratio was 0.973 ± 0.021.

Take AATATCACGG: the switch fluorescence ratio was determined as 1.05 ± 0.029.

Take AATATCTGTG: the switch fluorescence ratio amounted to 1.01 ± 0.016. As for AATATGATAA, the switch fluorescence ratio came out at 1.01 ± 0.053. Consider AATATGATGT, for which the switch fluorescence ratio was 1.05 ± 0.04.

In the case of AATATGGGGT, the switch fluorescence ratio is 1.01 ± 0.014. To AATATGTATG belongs 0.996 ± 0.024; to AATATGTGAG, 0.995 ± 0.028; to AATATGTTGT, 0.98 ± 0.037. The same measure for AATATTAGCC: 0.957 ± 0.02; for AATATTATGG: 1 ± 0.016. To AATATTGGGG belongs 0.981 ± 0.029; to AATATTGGTG, 1.0416 ± 0.001. With AATATTGTCG, the switch fluorescence ratio was determined as 0.994 ± 0.034. The same measure for AATATTGTCT: 0.96 ± 0.013; for AATATTTGGT: 0.974 ± 0.019; for AATCAAGGCG: 1.03 ± 0.1.

Take AATCAATTGT: the switch fluorescence ratio came to 0.978 ± 0.053. The same measure for AATCAGAGTG: 1.01 ± 0.03. The same measure for AATCAGCGTC: 0.986 ± 0.023; for AATCAGGGGG: 1.01 ± 0.04. To AATCAGTGGA belongs 0.974 ± 0.038. On to AATCATCGTG, for which the switch fluorescence ratio was 0.9646 ± 0.0043. The same measure for AATCATGGAG: 0.9891 ± 0.004; for AATCATGGT: 0.978 ± 0.019; for AATCATTATT: 1.01 ± 0.017.

Turning to AATCATTGTT, the switch fluorescence ratio was 1.02 ± 0.026. To AATCCAGGGC belongs 1.05 ± 0.056. To AATCCTGGAG belongs 1.02 ± 0.011. To AATCGAGGGG belongs 0.991 ± 0.03. As to AATCGAGTTG, the switch fluorescence ratio was 0.985 ± 0.013.

The values are drawn from the supplement of paper PMC10126150.
